Reference: publication PMC2650222 (Biochemistry, 2008)

Biological target: T1, Pyrococcus furiosus RPP29 (Pyrococcus furiosus, UniProt Q8U007 1-127)
T1 sequence (looked up): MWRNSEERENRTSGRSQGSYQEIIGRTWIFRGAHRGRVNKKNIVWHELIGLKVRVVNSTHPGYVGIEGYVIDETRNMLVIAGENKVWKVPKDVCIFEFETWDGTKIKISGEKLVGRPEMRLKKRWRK
Test: NMR titration

binding result: binds
B1: Pyrococcus furiosus RPP21 (natural protein)
chain: AKYNEKKEKKRIAKERIDILFSLAERVFPYSPELAKRYVELALLVQQKAKVKIPRKWKRRYCKKCHAFLVPGINARVRLRQKRMPHIVVKCLECGHIMRYPYIKEIKKRRKEKMEYGGLVPR
modifications: 15N-labelled (uniform isotope labelling)
